Measured values from US20250258178A1 (SHIONOGI, published 2025).

T1: human histidine-rich glycoprotein (HRG), purified from human plasma (human, UniProt P04196 19-525)
T1 construct: also called human purified HRG; human purified HRG protein
T1 sequence: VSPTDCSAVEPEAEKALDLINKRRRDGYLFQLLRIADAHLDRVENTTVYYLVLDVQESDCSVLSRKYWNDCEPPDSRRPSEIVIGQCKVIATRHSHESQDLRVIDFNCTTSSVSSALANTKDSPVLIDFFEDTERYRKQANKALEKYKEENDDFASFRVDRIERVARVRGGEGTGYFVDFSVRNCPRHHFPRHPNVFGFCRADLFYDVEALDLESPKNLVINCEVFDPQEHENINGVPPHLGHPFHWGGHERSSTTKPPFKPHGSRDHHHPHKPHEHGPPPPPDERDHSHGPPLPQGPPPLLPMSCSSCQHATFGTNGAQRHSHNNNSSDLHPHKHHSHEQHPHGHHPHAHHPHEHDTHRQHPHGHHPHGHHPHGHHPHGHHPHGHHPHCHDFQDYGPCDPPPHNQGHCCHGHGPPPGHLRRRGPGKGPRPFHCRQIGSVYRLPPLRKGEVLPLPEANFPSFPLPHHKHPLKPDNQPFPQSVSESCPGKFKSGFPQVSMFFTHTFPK

B1: anti-HRG monoclonal antibody 75-2D (antibody, V domains shown)
VH: QVQLQQSGAELMKPGASVKISCKATGYTFSSYWIEWVKQRPGHGLEWIGEILPGSGRTNYNEKFKGKATFTADTSSNTAYMQLSSLTSEDSAVYYCARYSYFYYFDYWGQGTTLTVSS
VL: DNVLTQSPAIMSASLGERVTMTCTASSSVSSSYLHWYQQKPGSSPKLWIYSTSNLASGVPARFSGSGSGTSYSLTISSMEAEDAATYYCHQYHRSPWTFGGGTKLEIK
notes: Mouse hybridoma monoclonal; also called clone No. 75-2D
B2: anti-HRG monoclonal antibody 69-1A (antibody, V domains shown)
VH: EVKLEESGGGLVQPGGSMKLSCAASGFTFSDAWMDWVRQSPEKGLEWVAEIRSKANNHGTYYAESVKGRFTISRDDSKSSVYLRMNSLSAEDTGIYYCTRPFAYWGQGTLVTVSA
VL: DVVVTQTPLSLPVSLGDQASISCRSSQSLVHIDGNTYFHWYVQKPGQSPKLLIYKVSNRFSGVPDRFSGSGSGTDFTLKISRVEAEDLGVYFCSQSTHVPLTFGAGTKLELK
notes: Mouse hybridoma monoclonal; also called clone No. 69-1A

What was measured:
[1] = target: T1, human histidine-rich glycoprotein …; assay: sandwich ELISA, HRG captured by solid phase 3-4E
Experimental: (§1) The capture antibody solution was dispensed at 25 μL per well into 384-well Maxisorp plates (NUNC), and the plates were incubated at room temperature for 3 hours. The plates were washed twice with 120 μL of washing solution per well (0.05% Tween 20-containing PBS). A blocking solution (1% BSA-containing PBS) was dispensed at 30 μL per well, and the plates were incubated at room temperature for 3 hours. The blocking solution was removed followed by dispensing the standard substance for evaluation at 20 μL per well (n=2), and the plates were incubated at room temperature for 3 hours. After washing the plates four times with the washing solution as described above, the solution of each detector antibody was dispensed at 10 μL per well, followed by dispensing a horseradish peroxidase-streptavidin solution (0.05 μg/mL) at 10 μL per well, and the plates were incubated at room temperature for 1 hour. After washing the plates four times with the washing solution as described above, a chromogenic substrate solution (TMB (3,3′,5,5′-tetramethylbenzidine)) was dispensed at 20 μL per well followed by incubating the plates at room temperature for 10 minutes, then a reaction stop solution 0.5 M H₂SO₄ was added at 20 μL/well, and the absorbance at 450 nm was measured.
(§2) The results regarding the evaluation of combinations chosen from 21 types of anti-HRG monoclonal antibodies are shown in Table 1. In Table 1, the absorbance at a wavelength of 450 nm of each combination was determined as follows: less than 1.0 OD: −, 1.0 OD or more and less than 2.0 OD: +, 2.0 OD or more and less than 3.0 OD: ++, and 3.0 OD or more: +++. The combinations of antibodies which could construct a sandwich ELISA system having enough level of absorbance change were 86 sets evaluated as ++ or +++ in Table 1.

[2] = target: T1, human histidine-rich glycoprotein …; assay: sandwich ELISA, HRG captured by solid phase 13-2G
Experimental: as §1, §2

[3] = target: T1, human histidine-rich glycoprotein …; assay: sandwich ELISA, HRG captured by solid phase 19-1C
Experimental: as §1, §2

[4] = target: T1, human histidine-rich glycoprotein …; assay: sandwich ELISA, HRG captured by solid phase 31-1H
Experimental: as §1, §2

[5] = target: T1, human histidine-rich glycoprotein …; assay: sandwich ELISA, HRG captured by solid phase 32-4C
Experimental: as §1, §2

[6] = target: T1, human histidine-rich glycoprotein …; assay: sandwich ELISA, HRG captured by solid phase 65-3A
Experimental: as §1, §2

[7] = target: T1, human histidine-rich glycoprotein …; assay: sandwich ELISA, HRG captured by solid phase 69-1A
Experimental: as §1, §2

[8] = target: T1, human histidine-rich glycoprotein …; assay: sandwich ELISA, HRG captured by solid phase 81-2C
Experimental: as §1, §2

[9] = target: T1, human histidine-rich glycoprotein …; assay: sandwich ELISA, HRG captured by solid phase 88-2E
Experimental: as §1, §2

[10] = target: T1, human histidine-rich glycoprotein …; assay: sandwich ELISA, HRG captured by solid phase 93-4C
Experimental: as §1, §2

[11] = target: T1, human histidine-rich glycoprotein …; assay: sandwich ELISA, HRG captured by solid phase 50-6C-2A
Experimental: as §1, §2

[12] = target: T1, human histidine-rich glycoprotein …; assay: sandwich ELISA, HRG captured by solid phase 67-8A-5F
Experimental: as §1, §2

[13] = target: T1, human histidine-rich glycoprotein …; assay: sandwich ELISA, HRG captured by solid phase 35-3G-10C
Experimental: as §1, §2

[14] = target: T1, human histidine-rich glycoprotein …; assay: sandwich ELISA, HRG captured by solid phase 94-7A-3C-3D
Experimental: as §1, §2

[15] = target: T1, human histidine-rich glycoprotein …; assay: sandwich ELISA, HRG captured by solid phase 6-12A-10B-9G
Experimental: as §1, §2

[16] = target: T1, human histidine-rich glycoprotein …; assay: sandwich ELISA, HRG captured by solid phase 58-5C
Experimental: as §1, §2

[17] = target: T1, human histidine-rich glycoprotein …; assay: sandwich ELISA, HRG captured by solid phase 75-2D
Experimental: as §1, §2

[18] = target: T1, human histidine-rich glycoprotein …; assay: sandwich ELISA, HRG captured by solid phase 40-10G
Experimental: as §1, §2

Binder | absorbance at 450 nm [3] [OD] | absorbance at 450 nm [4] [OD] | absorbance at 450 nm [5] [OD] | absorbance at 450 nm [7] [OD] | absorbance at 450 nm [8] [OD] | absorbance at 450 nm [9] [OD] | absorbance at 450 nm (OD450) [10] [od] | absorbance at 450 nm [13] [OD] | absorbance at 450 nm [14] [OD] | absorbance at 450 nm (OD450) [15] [od] | other results
B1 | < 1 | < 1 | < 1 | < 1 | < 1 | < 1 | 1 to 2 | < 1 | < 1 | ≥ 3 | absorbance at 450 nm [1]: < 1 OD; absorbance at 450 nm (OD450) [2]: 2 to 3 od; absorbance at 450 nm (OD450) [6]: ≥ 3 od; absorbance at 450 nm (OD450) [11]: ≥ 3 od; absorbance at 450 nm (OD450) [12]: ≥ 3 od
B2 | < 1 | < 1 | < 1 | < 1 | < 1 | < 1 | 1 to 2 | < 1 | < 1 | 2 to 3 | absorbance at 450 nm (OD450) [1]: ≥ 3 od; absorbance at 450 nm [2]: < 1 OD; absorbance at 450 nm (OD450) [16]: 1 to 2 od; absorbance at 450 nm [6]: < 1 OD; absorbance at 450 nm (OD450) [17]: 2 to 3 od; absorbance at 450 nm (OD450) [18]: 1 to 2 od; absorbance at 450 nm [11]: < 1 OD; absorbance at 450 nm [12]: < 1 OD
